IntAct's records for PubMed 33393904

B1: SUN domain-containing protein 2 (Homo sapiens), Q9UH99 (parent)
chain: MSRRSQRLTRYSQGDDDGSSSSGGSSVAGSQSTLFKDSPLRTLKRKSSNMKRLSPAPQLGPSSDAHTSYYSESLVHESWFPPRSSLEELHGDANWGEDLRVRRRRGTGGSESSRASGLVGRKATEDFLGSSSGYSSEDDYVGYSDVDQQSSSSRLRSAVSRAGSLLWMVATSPGRLFRLLYWWAGTTWYRLTTAASLLDVFVLTRRFSSLKTFLWFLLPLLLLTCLTYGAWYFYPYGLQTFHPALVSWWAAKDSRRPDEGWEARDSSPHFQAEQRVMSRVHSLERRLEALAAEFSSNWQKEAMRLERLELRQGAPGQGGGGGLSHEDTLALLEGLVSRREAALKEDFRRETAARIQEELSALRAEHQQDSEDLFKKIVRASQESEARIQQLKSEWQSMTQESFQESSVKELRRLEDQLAGLQQELAALALKQSSVAEEVGLLPQQIQAVRDDVESQFPAWISQFLARGGGGRVGLLQREEMQAQLRELESKILTHVAEMQGKSAREAAASLSLTLQKEGVIGVTEEQVHHIVKQALQRYSEDRIGLADYALESGGASVISTRCSETYETKTALLSLFGIPLWYHSQSPRVILQPDVHPGNCWAFQGPQGFAVVRLSARIRPTAVTLEHVPKALSPNSTISSAPKDFAIFGFDEDLQQEGTLLGKFTYDQDGEPIQTFHFQAPTMATYQVVELRILTNWGHPEYTCIYRFRVHGEPAH

Variants of: B1
Settings: with syne1_human SYNE1, Q8NF91

Row | effect of a mutation on the interaction | Variant
1 | increasing interaction strength | C705A
2 | disrupting interaction strength | I579E
